Experiment: soluble on expression in E. coli; label from the status in PepcDB or PDB records

| Sequence | soluble on expression in E. coli |
| --- | --- |
| MKKTLILGATPETNRYAYLAAERLKSHGHEFIPVGRKKGEVLGKTIINERPVIEGVDTVTLYINPQNQLSEYNYILSLKPKRVIFNPGTENEELEEILSENGIEPVIGCTLVMLSAGT | not soluble |
| MGSDKIHHHHHHMGFLAREKVHLKKVVIGGSQDWLKHSYKLFKAIMNRIFGYGNKKSHDQLLQESNQSMNQAQQSLSNRISQLDTQIAQLNFQLQNIQKNLQRSNNKQPSLRKQALKILNKRKQLENMKDSLDSQSWSMTQAQLTNDNLQNTMITINALKQTNNAMKAQYGKINIDKLQDMQDEMLDLIEQGDELQEVLAMNNNSGELDDISDAELDAELDALAQEDFTLPTSENSLGNDMPSYLLGANAPPAFIDEEPNLDTEDKNKALESAQ | not soluble |
| MSSDGEQDEENPILARHRREKKELRGKILAKKKAAKCGNKQMQKEAGAECEKMEKEMDERHKKELEEAKKPEESEAVPAENPEASTLSPPSPNPEGSDNDGEGPSSSAFYKTVKISNKAAKKQDKKKKTADKMKAAEAADKEAGKNQLSDRQMEKAAVKEMLAEDHMKMIDIPADGDCMYNAISHQLQEEGIEISVRKLRKRCGTYMREHSEDFRPFIEDMANMDSDSSWATYLGGVENVAEIGGVWGGELELKACSMIFEKTIVVYKQYGGRHTIGEEYSSPKDRALRVVFLRHAYSLGEHYNSTCPY | soluble |
| MGSDKIHHHHHHMTNTIMEQEARTAPQKIAGQLAANADLMQQLGEKLRAFDPRFVMIVGRGSSDHAGVFAKYLFEIEVGVPTFAAAPSVASVYGKTLKLEGGLVIVISQSGRSPDILAQARMAKNAGAFCVALVNDETAPIKDIVDVVVPLRAGEEKAVAATKSYLATLSAILQLASAWTQSESLAAAVSSLPQALQTAVVAEPQLTPESVENVKNLVVLGRGLGYAVSKEIALKLKEVCSIHAEAFSSAEFLHGPVTLVEKKLTIVDVCIGDESYASHIEQIENVSQRGADLVHLNQTSTDIHPRVAPLALLQRFYIDVAAVAIARGIDPDQPAGLKKVTQTL | not soluble |
| NATTLPEALKLMQYIGDAIGTIRDPQELFRTVTDKLRLLFAFDSAVIITIDRERREASVFFEMLRFELPEQLRHQTRSIAGTWLEGHLDDRTVTVASIARDIPSFGADGAPLLWTLHELGMRQIVLSPLRSGGRVIGFLSFVSAEEKLWSDGDKSLLSGVSSSIAIAVSNALAYEELRQREAETSMQLAINNALFTI | soluble |
| LDQILRATVEEVRAFLGTDRVKVYRFDPEGHGTVVAEARGGERLPSLLGLTFPAGDIPEEARRLFRLAQVRVIVDVEAQSRSISQPESWGLSARVPLGEPLQRPVDPCHVHYLKSMGVASSLVVPLMHHQELWGLLVSHHAEPRPYSQEELQVVQLLADQVSIAIAQAELSL | soluble |
| LLERVSAEAVTTTLHQVTRERMEDRCRGEYERSFLREFHKWIERVVGWLGKVFLQDGPARPASPEAGNTLRRWRCHVQRFFYRIYASLRIEELFSIVRDFPDSRPAIEDLKYCLERTDQRQQLLVSLKAALETRLLHPGVNTCDIITLYISAIKALRVLDPSMVILEVACEPIRRYLRTREDTVRQIVAGLTGDSDGTGDLAVELSKTDPASLETGQDSEDDSGEPEDWVPDPVDADPGKSSSKRRSSDIISLLVSIYGSKDLFINEYRSLLADRLLHQFSFSPEREIRNVELLKLRFGEAPMHFCEVMLKDMADSRRINANIREEDEKRPAEEQPPFGVYAVILSSEFWPPFKDEKLEVPEDIRAALEAYCKKYEQLKAMRTLSWKHTLGLVTMDVELADRTLSVAVTPVQAVILLYFQDQASWTLEELSKAVKMPVALLRRRMSVWLQQGVLREEPPGTFSVIEEERPQDRDNMVLIDSDDESDSGMASQADQKEEELLLFWTYIQAMLTNLESLSLDRIYNMLRMFVVTGPALAEIDLQELQGYLQKKVRDQQLVYSAGVYRLPKNCS | soluble |
| SGILFMSKVGLRGDRRSEGDEVLDPLRQALDSSMQSHNLYQHPQHLAFHVSAPVASTVQQASGLLGPLPHLSSFALQPAHSLLPPLGSHGAGFQENGAKAES | soluble |
| GPGSMSALWARFTEKLKGSGYTLSDLVYCSEDTFLTLVANMNAFTPLQIASLAKEWQRSLSAAATPTATVSGSALPISRRHAESTRLSSSPVRSSALNRATLPATGAAETPPNHSTLSTALRKNSFVPPRRSPAKVKEEAEYLLTKLGAQSGAEYQVSLTEGIVAVEASPEAWGPLLDRVSRMHVTSHRDSAAAATPLATELQLLWKLCSPATLRKMEKACVSGAPFGLSNQDDADGLCSSAVVLYGKDATRLAAPAEELEQLFREGWGLVAFDVAVGKARTVTKEEAQDLNANLYRFSMEQCLEMLEEAGFDAFHIPSRNAVAVCHMHQLMPRFVVFVSTLEPVVVTRRLGDAVPAVGNGRPSRAPPAPAASPSPSAVAAAAAALPAARRSINGGDDVLVPASRSSRNSEDLQCAVHSKKTVEFWSPTEKRLLCSHCLYYDGYSQENCIPIEQAAREEAPRLERWVQNAITFSQEIKSVFDLFEAAQTDVSQTHKQVRSDIAHSFTRLRARLDALEANLQQQCQQKAQQNLQVLQDTLSRITATVQFVSEVVQDADEPVAAYRGGVADTNTCVALLRSAQRAFGAWEPVTISAYEDVRIVDGSALLQPVEEALKAVQSISSEAGKVQLPEAIDVNYLKSDCDV | not soluble |
| MISVFDMFKVGIGPSSSHTVGPMKAGKQFIDDLIKRNQFEQTTEIHVDVYGSLSMTGRGHSTDIAIIMGLAGYLPHNVDIDMISGFIEKVKQTALLPINVGQKIVKFDFENNLIFHRTFLKLHENGMTITALDENRTELYRQTYYSIGGGFIVDEAHFGK | not soluble |
| MGSDKIHHHHHHMGNFLYGIDFGTSNSVLSIFDEDKNEIIETLSVPSILYFPDAYDPALPLQYYVGEDAIRYYISDGMKGRFMKSIKRVLPRTNFVETRIHTKSFNAAGLITLILKELKTKADAIIGMDCKKAIIGRPVYFDDDNTVNDAVAQKRLLQAAQQAGLSDIRFQYEPIGAAFAYERTISKKEHVLVADLGGGTTDFTFIELDPHKNNRKDRRSDIIATGGIYIGGDSFDSAFMWDKGTPYFGRGVTYESMPGKMVDVPPSFFSNICSWEKMNFFNGVKVQNDLRQYYNYSKQNDKLKNLITLTENNLGYSIFQSIEKTKVDLSIQSSSSFSYHKADIHIDEPIDLTAYNRIIQRDVTKINNYLESFLSKHAIVPESIDSLFLTGGTSMVQAIQALFKEKFPHIAITSGDNFISVSKGLAYSGYLFD | not soluble |
| MGSDKIHHHHHHILVKNKIDNEFNWISMKEEQKLNVPIENQMPDLPNGCEVTSLSMLMNYYGIRVTKNELAQNIQHVSSFTNNGKYRGNPNQGFVGYMSIENAGWCVYNGPLYNVARKYTNRIQNATGSDFLSILKLVSDGHPVLIITTTTFNRVNNMQTWETNTGKVNVTPSSHACVITGYDKKKRIVYLNNPYGIKNQAVNWNNLENSYNQQGKQALYIK | not soluble |
| MGSDKIHHHHHHMLQTTNKPPLTIRLCQPRGFCAGVDRAIQIVVLALKKYGAPVYVRHEIVHNRYVVEGLQSLGAVFIEELSEIPAEHRRSPVVFSAHGVPKSVPADAQARNLFYLDATCPLVSKVHKQAMRHQRLGRHVLLIGHAGHPEVIGTMGQLPEGAVTLVETEADAARLVPADPKALGFVTQTTLSVEDTAGIIRALRERFPDLQAPAAESICYATTNRQEAVKDTAPGADLYLIVGAPNSSNSRRLVEVAERAGATMSLLVQRAAEIPWNDIGTISTLGLSAGASAPEIIVDEIIDAFRQRFDVTIDLAITATETEDFPVMRVLRDVELTPADMAFVNGAA | not soluble |
| MGSDKIHHHHHHCRDELSTAGGKWVESSLRTIQTDTCTVRLSTILSDSLATSGDTVCQIGTIDDPVWGKIKAAFYAEYDVPTVSFSENADYRFDSITIRFYSSGNYLGDTLSPQRISLHSLSENLSLDEGYLYTTSKVSYHSTPLASFTFTPTPGETIREHEIRLPDEWGVEWFEHFQAGSREMESQEYFRDYFKGIAFIPEEGGNCVNGFMVNDSSLCITLYYHQTETDATELSADFLPNSDLRFNQVSCDRSRTALSSLQSGLNNGLPSEKSEHQSYLQGLTGMYINIDFPFLNDLRAEGRLVTIESALLRLYPVKGTYGKQYPLPESLTLYTADENNVTEDVVTDISGSSVQTGSLVTDEMMGEDTYYSFDITSFLQSNLGTVGYNRKILQLMLPDNLFFTTLNGVVFGDARHPDSNPVKLTLLYKTYNP | not soluble |
| EHKIILYENPNFTGKKMEIVDDDVPSFHAHGYQEKVSSVRVQSGTWVGYQYPGYRGLQYLLEKGDYKDNSDFGAPHPQVQSVRRIRDMQGNPKIIIFEQENFQGHSHELSGPCPNLKETGMEKAGSVLVQAGPWVGYEQANCKGEQFVFEKGEYPRWDSWTSSRRTDSLSSLRPIK | soluble |

Source: the DeepSol protein solubility set
